Changes are numbered by the printed parent chain. Like-named read-outs stand apart in the source and are kept apart here.
B1: Peroxiredoxin 1 (recombinant human Prx1, unlabeled) (natural protein, UniProt Q06830 1-199, looked up)
chain: MSSGNAKIGHPAPNFKATAVMPDGQFKDISLSDYKGKYVVFFFYPLDFTFVCPTEIIAFSDRAEEFKKLNCQVIGASVDSHFCHLAWVNTPKKQGGLGPMNIPLVSDPKRTIAQDYGVLKADEGISFRGLFIIDDKGILRQITVNDLPVGRSVDETLRLVQAFQFTDKHGEVCPAGWKPGSDTIKPDVQKSKEYFSKQK
B2: FITC-conjugated Prx1 (recombinant human) (natural protein, UniProt Q06830 1-199, looked up)
chain: B1 chain
modifications: FITC conjugated (FITC conjugation kit, Sigma; residues not stated)
B3: FITC-conjugated Prx1C52S (recombinant human) (natural protein, UniProt Q06830 1-199, looked up)
chain: B1 chain with C52S
modifications: FITC conjugated (FITC conjugation kit, Sigma; residues not stated)
B4: Prx1C52S (recombinant human, unlabeled) (natural protein, UniProt Q06830 1-199, looked up)
chain: B1 chain with C52S

Assays:
Assay in all cases: flow cytometry on cells
[1] = biological target: T1, Toll-like receptor 4 (mouse (endogenous in TG-elicited …, UniProt Q9QUK6 26-835))
T1 sequence (looked up): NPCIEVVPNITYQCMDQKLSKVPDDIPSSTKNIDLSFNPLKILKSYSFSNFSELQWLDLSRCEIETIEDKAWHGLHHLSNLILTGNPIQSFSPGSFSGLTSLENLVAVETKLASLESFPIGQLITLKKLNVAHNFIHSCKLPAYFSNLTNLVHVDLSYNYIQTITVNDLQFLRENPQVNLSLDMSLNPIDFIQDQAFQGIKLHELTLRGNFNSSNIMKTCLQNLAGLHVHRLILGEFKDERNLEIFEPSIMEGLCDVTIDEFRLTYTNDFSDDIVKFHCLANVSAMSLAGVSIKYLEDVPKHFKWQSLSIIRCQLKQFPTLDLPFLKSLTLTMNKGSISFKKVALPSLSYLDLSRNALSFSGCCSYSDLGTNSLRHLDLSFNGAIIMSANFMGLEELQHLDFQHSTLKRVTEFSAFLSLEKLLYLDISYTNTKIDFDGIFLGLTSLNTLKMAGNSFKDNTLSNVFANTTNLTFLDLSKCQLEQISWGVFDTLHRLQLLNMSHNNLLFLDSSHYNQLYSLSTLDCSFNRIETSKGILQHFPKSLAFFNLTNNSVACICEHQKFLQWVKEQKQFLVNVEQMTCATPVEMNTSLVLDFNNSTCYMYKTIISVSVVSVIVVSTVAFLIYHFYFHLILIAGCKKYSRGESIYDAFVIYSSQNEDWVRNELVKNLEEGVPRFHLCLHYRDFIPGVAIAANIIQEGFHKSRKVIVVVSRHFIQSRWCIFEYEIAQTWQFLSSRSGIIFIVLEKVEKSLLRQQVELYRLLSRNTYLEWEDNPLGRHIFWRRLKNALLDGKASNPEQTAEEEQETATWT

[2] = biological target: T1, Toll-like receptor 4; remark: listed apart in the source
[3] = biological target: T1, Toll-like receptor 4; remark: listed apart in the source

| Binder | Ki [1] | Kd [2] | Kd [3] |
| --- | --- | --- | --- |
| B1 | 4100 µM | – | – |
| B2 | – | 1600 µM | ~1300 µM |
| B3 | – | 2500 µM | – |
| B4 | 5200 µM | – | – |

From paper PMC2955897 (Journal of immunology (Baltimore, Md. : 1950), 2009)
